Measurements taken from the RNAGym collection of RNA variant scans (doi:10.1073/pnas.2313332121).
Fewer inactive variants are shown than the library holds.

B1: TPR 5TU (parent)
chain: GGAUCUUCUCGAUCUAACAAAAAAGACAAAUCUGCCACAAAGCUUGAGAGCAUCUUCGGAUGCAGAGGCGGCAGCCUUCGGUGGCGCGAUAGCGCCAACGUUCUCAACUAUGACACGCAAAACGCGUGCUCCGUUGAAUGGAGUUUAUCAUG

Variants of: B1
Assay: polymerase ribozyme fitness, log enrichment relative to wild type (log ratio); higher = more active; in vitro selection for triplet polymerase activity
Procedure, shortened: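 PCR was used to build mutant libraries for each subunit of a heterodimeric triplet polymerase ribozyme, which were then transcribed. A single in vitro selection round, in triplicate, used a frozen incubation at −7 °C and recovered extended constructs by gel excision, streptavidin beads and RT-PCR. Fitness is the logarithm of genotype enrichment relative to wild-type enrichment, averaged over replicates with inverse-variance weights. The logarithm is base 2, and after Illumina sequencing only genotypes with ≥10 input reads and ≥1 read per output were kept.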

Variant | polymerase ribozyme fitness (log ratio)
C10G A26U A107U A115U C129A U148G | ≤ -4.2
U9C G88C A137C | ≤ -4.2
U9A A60U U61C C72U C93U | ≤ -4.2
U7G A17C A39C A91G C114G | ≤ -4.2
C8A C14G A21G G25A U45C C75A G81U C85G C87G | ≤ -4.2
U7C U53A C85U | -3.46
C8G A39C U77C U104G A115C | ≤ -4.2
C8U A20G A26U U56A C96U C105U G128C | ≤ -4.2
C8U G42C C85A | ≤ -4.2
C10A G48A U56G C79G C96A G143C | ≤ -4.2
U7G C18U A30U G59U U77A G83C A138C | ≤ -4.2
U9G A73G | -4.11
C8G G92U | -3.57
U7G U56A G59C U78C | -2.83
U9A A47G C69A G94A C96G U101C A121C A138G | ≤ -4.2
C10A C32G U139G | ≤ -4.2
C8G A21G C27A A73C G92C U104G A150U | ≤ -4.2
C8U A39U G48U U134A | ≤ -4.2
U9G C38U U44C G46A U56A C79G C96A A142G | ≤ -4.2
U9A G48A G80C C87G A107U A113U | ≤ -4.2
C8A G86A C87U A138U | ≤ -4.2
U9G C27G A28G A41C C57U U82G G92C G140U | ≤ -4.2
C8G G11A A19C G50A C69A G70A C93U | ≤ -4.2
U9A C27A A40U | ≤ -4.2

Variant | polymerase ribozyme fitness (log ratio)
U9C G11U A16G C51G C93G G112U | ≤ -4.2
U9A A21G A28C U45A A52C C87A G128A G136U | ≤ -4.2
C10G A23U U56A C93U | ≤ -4.2
C8A A37C G59C C75A G92A | ≤ -4.2
C8G A16U A37C A73C G84A U139C | ≤ -4.2
C8A A49G A60U C75U U78C C85G C116G G140A | ≤ -4.2
U7G U55A | -3.28
C10G A107C | ≤ -4.2
C8A U33C U44A A52U C85U U104A A106G C125G G152U | ≤ -4.2
C8A C76A G88U G94U C132G U139C | ≤ -4.2
C8U C14G C32A C36G G83A G117C | ≤ -4.2
C8G U78A | ≤ -4.2
C8U U61A C95A U146G | ≤ -4.2
C8A U9C C18A A19G G58U G84A U144C A147C | ≤ -4.2
C8U C10U C32G C35G C95U G136A | ≤ -4.2
U9G U53G C87U A113U C116A G140U | ≤ -4.2
C8A U15A A19U A28U A30U C38A A39C A40U G59U C99G A107U C114U | ≤ -4.2
U9G G86U A97U C108G | ≤ -4.2
U9C A52C U61A C96G C103G A142C | -4
U9A A30C A40G A41C C57U C95G | ≤ -4.2
C8U C32A G58C C93G G94U C95U G117U A138U | ≤ -4.2
C10G C38U C95A | ≤ -4.2
C8A G141A | -3.13
C8U C85U | -3.19

Variant | polymerase ribozyme fitness (log ratio)
C8U C85A | -2.75
U9G G141U | -2.58
C8A G50U C76U G83A C116G C131A U145C | ≤ -4.2
U9A A16C C85A C87A | ≤ -4.2
C10A A12U A28C A29C A107G | ≤ -4.2
C8G A16U C36G | ≤ -4.2
U7G C38U | -2.77
C8A A24U G71A G84A G143C | ≤ -4.2
U7G A21U | -2.97
C8G A41C C93G C103A A120U A142U | ≤ -4.2
U9C U33G A39U U55A C57U A91C C95A G140U | ≤ -4.2
C8U A22C A39G C85G A106G A119G | ≤ -4.2
C8U C63U C72U C123U G126U | ≤ -4.2
U9C A119U | ≤ -4.2
U9C U33C C87A A122C | ≤ -4.2
U9A A28C A64C C72U U78G | ≤ -4.2
C8U A21U A28C A52U G94U C95G A97C A122U G126U G136A | ≤ -4.2
C8U U13C C14A A20U G50C C63A G71A C79G G92U A119C G141A | ≤ -4.2
C10G C18G A19C C87A A98U A115U G117U | ≤ -4.2
U7C U13G A20C U31A C51U U53G C87G A89G C93U U139C A142U G143U G152A | ≤ -4.2
U9G C14U A29C C35A C87U G92A G94U A98U A137U | ≤ -4.2
C8A A12C G42C C72U G86A | ≤ -4.2
U7G A21G U61G C85U C87A A106C | ≤ -4.2
U7G C14G U55G G58U G80C A107G C118U G140C | ≤ -4.2

Variant | polymerase ribozyme fitness (log ratio)
C8A U13G A30U U82A U101G | ≤ -4.2
C8U C116A | -2.08
C10A G83C | -3.94
C8G G80C | ≤ -4.2
U9G G59U G68C G84U C105A G124A G133C A142C | ≤ -4.2
C8A C51A C57A G59A U61A G67C C95U C125U U134C U139A | ≤ -4.2
C8A A17C G62A G68A C85U U111G | ≤ -4.2
C8G A24U A26G A52C C93G | ≤ -4.2
C10A A20G C38A U55A A60C | ≤ -4.2
C10G C14G G25C G59U C95U A110G | ≤ -4.2
C10G A20U A28U C35U C51G A64C G84U C123U | ≤ -4.2
C10G A17U A37C C93U | -4.18
U9A A20U C36A A52C A113U G124C | ≤ -4.2
C8U U15A A41U C85A G126A | -4.06
U7G C125U | -3.39
C8A G42A A49C G83U C93A G94A | ≤ -4.2
C8G G48A C54U C69G C85G A91C | ≤ -4.2
C8U G84A | -2.87
C10G C54A G71A | ≤ -4.2
U7G U55A A91U U130A G141C | ≤ -4.2
C10G A91C C95U C103G C116G | ≤ -4.2
C8A A28C A30G C96A U127G | ≤ -4.2
C8G U31A A49C U53A G84A A119U A121C A137U | ≤ -4.2
C8U A22U C51U G62A C93G C103A C105G | ≤ -4.2

Variant | polymerase ribozyme fitness (log ratio)
C8G C10A C93U A106U A107U C108U U148G | ≤ -4.2
C10G A98G | -4
C8G A16C A21G G48C C75A C87U A110U U144G | ≤ -4.2
U7C C85G | -3.47
U7C C85U | -2.04
C10G A47G A49G G71A C87U A97U A106G A107C U111G U134C | ≤ -4.2
C8A C36U G62U C95G A115U | ≤ -4.2
C8A A40U G71U C85G | ≤ -4.2
C8A C85A C87A G124A | ≤ -4.2
U7G A22G C36A U56G G62U G88A | ≤ -4.2
C8G A40U U53A C87A C108G | ≤ -4.2
U7G G25A A28U C54A C85U U148G C149U | ≤ -4.2
C8U A142C | -3.25
C8G U56G A91G | ≤ -4.2
C8U A16C A19U G59U A60G C93U | ≤ -4.2
U7C C38U G62C | -3.44
U7C C35U C87G U104G | -4.04
C10A A66C C85U A98G A121C | ≤ -4.2
U9A G59A C87A | ≤ -4.2
C8U A20G A24C A40C G50C G71C A89C C93U | ≤ -4.2
C10G A64C G70A A97U U144G A150U | ≤ -4.2
C8G C96A | -4.07
C10A A22U A39U C85U G126A | ≤ -4.2
U7C U53G G94A | ≤ -4.2

Variant | polymerase ribozyme fitness (log ratio)
U9G U56G G84U C87A U90G U109G U130C U139A | ≤ -4.2
C10A C76U | -3.95
C8A | -2.84
C8U | -2.39
C8G | -2.95
C8A A17G A21U C38U G86A C99G G126U U139G | ≤ -4.2
U9A C93A A142C | -3.81
C8G A47C G81C G84C G86U | ≤ -4.2
C10G A16G U53A U55A G65A G92A A98U G126A A138U U148G | -4.12
C8A U15C C75A U109C | ≤ -4.2
C10G A47C C54A U55A G58A C63U U82C C87G G100U A113C U134G | ≤ -4.2
U9A G83A | -4.06
U9A A12U C32U A37U G92C | ≤ -4.2
C10G A19U C32A C93U U127A | ≤ -4.2
U9A A24U U55A G68U U82C G94A A110U G136A | ≤ -4.2
C10G A17U C54G C93U A106C C125A | ≤ -4.2
U9A C27U C72U | ≤ -4.2
C8U U15G U44A C54U G84A U101G A110U A115G G133U | ≤ -4.2
U9C C27G U44G C85U C93G | ≤ -4.2
U7G G50C A52C G84A C114U A138G | ≤ -4.2
U9G U90C U148G | ≤ -4.2
C10A A24C C51U G141U | ≤ -4.2
U9G G42C G58C C95U | ≤ -4.2
C10G A40G A49C U102G G128A | ≤ -4.2

Variant | polymerase ribozyme fitness (log ratio)
C10A C85A | -3.53
U7G U13A A17U A98U A107C U146C | ≤ -4.2
C10G A37G C51G A107G U145C U148G | ≤ -4.2
U7G C93U A98G G141A | -3.82
U7G C32U C38U U55G C57U U61A G62A G88A U146C | ≤ -4.2
C8A U9G A12C A29U A30U G88U C93A A107G | ≤ -4.2
U7C U53A | -2.82
C8U C51A A60U C87U | ≤ -4.2
U7G U55C C99U | ≤ -4.2
U7G A17U A52C C85U C116A | -3.83
C8G G11U G50A C116G U146G | ≤ -4.2
C8G C131U U144G | ≤ -4.2
U9G C75U A150G | ≤ -4.2
U9C A19G A30G C35A U56A C87G G117U U148C | ≤ -4.2
C8A A23C C38U A142G | ≤ -4.2
U9G A89U C95A | ≤ -4.2
C10G A19G A37G G42C C57U G59A C129A | ≤ -4.2
U9C U15G A17U A21U C27G U56A G68A | ≤ -4.2
U9G A24U C35U A60C G71A G128A G143U A150G | ≤ -4.2
U7G A17C A142U U146C | -3.89
C10A C14G U53A C57A G84A C99U G126A | ≤ -4.2
C8U A40U | -3.42
C8G C54U | -3.66
